Source: patent US20240317834A1, “COMPOSITIONS AND METHODS FOR NEUROLOGICAL DISEASES” (CODA BIOTHERAPEUTICS, INC., priority 2020, published 2024)
Substitutions are numbered along the chain they refer to. Names may count otherwise.

Test system: Lenti-X 293T cells
Assay: YFP fluorescence quenching anion reporter plate reader assay of engineered receptors stimulated with acetylcholine or a non-native ligand
Format: cell-based
Settings: for percent quench of YFP fluorescence, 30 nM TC-6683: TC-6683 30 nM; for percent quench of YFP fluorescence, 300 nM TC-6683: TC-6683 300 nM; for percent quench of YFP fluorescence, 3 uM TC-6683: TC-6683 3 uM; for percent quench of YFP fluorescence, 30 uM TC-6683: TC-6683 30 uM; for percent quench of YFP fluorescence, 100 uM TC-6683: TC-6683 100 uM; for percent quench of YFP fluorescence, 10 uM ach: acetylcholine 10 uM; for percent quench of YFP fluorescence, 100 uM ach: acetylcholine 100 uM; for percent quench of YFP fluorescence, 1 mM ach: acetylcholine 1 mM; for percent quench of YFP fluorescence, 3 mM ach: acetylcholine 3 mM
Source text: To screen these mutant LGICs for those having novel response profiles to ligands, an anion reporter assay was developed to assess the function of the LGICs in a high throughput format. In this assay, cells expressing a YFP reporter whose fluorescence is quenched in the presence of anion are transfected with DNA encoding the channel of interest. Upon exposure to ligand, channels that are activated will flux anion, resulting in a dose-dependent quench of the YFP that can be detected on a plate reader. The greater the quench signal (i.e., the more positive the value), the higher the ligand activity on the receptor is.
Lenti-X 293T cells (LX293T, Clontech) were maintained in DMEM containing 10% FBS and 1% penicillin/streptomycin (Invitrogen). […] Two days before assay, cells were split at a density of 20,000 cells/well in a 96-well tissue culture plate coated with poly-d lysine (Thermo Scientific). The next day, the cells were transiently transfected with 0.1 μg of DNA per well using standard Fugene protocol (Promega). On the day of assay, cells were washed 2 times in 1× extracellular solution (1×ECS: 140 mM NaCl, 5 mM KCl, 1 mM MgCl2, 2 mM CaCl2), 10 mM HEPES, 10 mM glucose, pH 7.2, mOsms 300). After the last wash, 100 μL of 1×ECS was added to the wells and the plate was incubated at 37° C. for 30 min. While incubating the plate, the drugs were diluted to a 2× concentration in 1×ECS-NaI (same components as 1×ECS except the 140 mM NaCl was replaced by 140 mM NaI). The plates were then read on a Flexstation3 (Molecular Devices). Each well, 8 wells at a time, of the plate is read for 2 min using a Flexstation3 (Molecular Devices) as follows: 1) a baseline YFP fluorescence is read for 17 sec, 2) 100 μL of ligand is added, and 3) the changes in YFP fluorescence are then measured every 1.3 sec for 1 minute and 43 seconds. The percent quench is calculated from the average fluorescence of the last 10 seconds of the read divided by the baseline average of the first 15 seconds prior to the ligand addition.
FIGS. 1A-1J provide heat maps of the percent quench of YFP fluorescence following stimulation by various doses of either acetylcholine or the non-native ligand as indicated in the Figures. CODA71 (SEQ ID NO: 33) was used as a control, and CODA75 (SEQ ID NO: 29, a non-responding chimeric engineered receptor) was used as the negative control. Quenching of the fluorescence signal, as indicated by blue shaded cells, indicate the level of engineered receptor activation by the non-native ligand at that concentration.

B1: CODA325: engineered chimeric LGIC receptor, L131G in SEQ ID NO: 33 (protein)
chain: MRCSPGGVWLALAASLLHVSLQGEFQRKLYKELVKNYNPLERPVANDSQPLTVYFSLSLLQIMDVDEKNQVLTTNIWLQMSWTDHYLQWNVSEYPGVKTVRFPDGQIWKPDILLYNSADERFDATFHTNVGVNSSGHCQYLPPGIFKSSCPMDLKNFPMDVQTCKLKFGSWSYGGWSLDLQMQEADISGYIPNGEWDLVGIPGKRSERFYECCKEPYPDVTFTVTMRRRMGYYLIQMYIPSLLIVILSWISFWINMDAAPARVGLGITTVLTMTTQSSGSRASLPKVSYVKAIDIWMAVCLLFVFSALLEYAAVNFVSRQHKELLRFRRKRRHHKSPMLNLFQEDEAGEGRFNFSAYGMGPACLQAKDGISVKGANNSNTTNPPPAPSKSPEEMRKLFIQRAKKIDKISRIGFPMAFLIFNMFYWIIYKIVRREDVHNQ
modifications: synthetic sequence of chimeric LGIC
- YFP fluorescence quenching using CNL001 (1 nM CNL001, first column): 74.429%
- YFP fluorescence quenching using CNL001 (1 nM CNL001, second column): 78.715%
- YFP fluorescence quenching using TC-5619/Bradanicline (3 nM brd): 68.45%
- YFP fluorescence quenching using Varenicline (3 nM var, first column): −12.241
- YFP fluorescence quenching using Varenicline (3 nM var, second column): −9.415
- YFP fluorescence quenching using CNL001 (10 nM CNL001, first column): 79.033%
- YFP fluorescence quenching using CNL001 (10 nM CNL001, second column): 79.322%
- YFP fluorescence quenching using TC-5619/Bradanicline (30 nM brd): 76.95%
- YFP fluorescence quenching using Facinicline (30 nM fac): 75.75
- YFP fluorescence quenching using Varenicline (30 nM var, first column): 75.334
- YFP fluorescence quenching using Varenicline (30 nM var, second column): 72.278
- YFP fluorescence quenching using CNL001 (50 nM CNL001, first column): 79.966%
- YFP fluorescence quenching using CNL001 (50 nM CNL001, second column): 80.091%
- YFP fluorescence quenching using ABT-126 (50 nM abt): −17.39%
- YFP fluorescence quenching using CNL001 (100 nM CNL001, first column): 81%
- YFP fluorescence quenching using CNL001 (100 nM CNL001, second column): 79.701%
- YFP fluorescence quenching using CNL002 (100 nM CNL002): 45.62%
- YFP fluorescence quenching using ABT-126 (100 nM abt): 6.89%
- YFP fluorescence quenching using AZD-0328 (100 nM azd0328): 79.75%
- YFP fluorescence quenching using ABT-126 (300 nM abt): 38.65%
- YFP fluorescence quenching using AZD-0328 (300 nM azd0328): 80.62%
- YFP fluorescence quenching using TC-5619/Bradanicline (300 nM brd): 77.1%
- YFP fluorescence quenching using Facinicline (300 nM fac): 78.01
- YFP fluorescence quenching using Varenicline (300 nM var, first column): 78.305
- YFP fluorescence quenching using Varenicline (300 nM var, second column): 77.83
- YFP fluorescence quenching using Varenicline (500 nM var, first column): 75.936
- YFP fluorescence quenching using Varenicline (500 nM var, second column): 76.788
- YFP fluorescence quenching using CNL001 (1 uM CNL001, first column): 79.289%
- YFP fluorescence quenching using CNL001 (1 uM CNL001, second column): 80.581%
- YFP fluorescence quenching using CNL002 (1 uM CNL002): 74.72%
- YFP fluorescence quenching using ABT-126 (1 uM abt): 45.82%
- YFP fluorescence quenching using TC-6987 (1 uM tc6987): 64.59
- YFP fluorescence quenching using Varenicline (1 uM var, first column): 77.805
- YFP fluorescence quenching using Varenicline (1 uM var, second column): 77.352
- YFP fluorescence quenching using TC-6987 (10 uM tc6987): 76.28
- YFP fluorescence quenching using CNL002 (30 uM CNL002): 77.4%
- YFP fluorescence quenching using AZD-0328 (30 uM azd0328): 80.19%
- YFP fluorescence quenching using Facinicline (30 uM fac): 76.61
- YFP fluorescence quenching using TC-6987 (500 uM tc6987): 70.95
- percent quench of YFP fluorescence, 30 nM TC-6683: −21.27%
- percent quench of YFP fluorescence, 300 nM TC-6683: −18.33%
- percent quench of YFP fluorescence, 3 uM TC-6683: −7.03%
- percent quench of YFP fluorescence, 30 uM TC-6683: 56.84%
- percent quench of YFP fluorescence, 100 uM TC-6683: 64.51%
- percent quench of YFP fluorescence, 10 uM ach: 5.66%
- percent quench of YFP fluorescence, 100 uM ach: 74.07%
- percent quench of YFP fluorescence, 1 mM ach: 62.65%
- percent quench of YFP fluorescence, 3 mM ach: 69.49%

B2: CODA326: engineered chimeric LGIC receptor, L131A in SEQ ID NO: 33 (protein)
chain: B1 chain with G131A
modifications: synthetic sequence of chimeric LGIC
- YFP fluorescence quenching using CNL001 (1 nM CNL001, first column): 76.424%
- YFP fluorescence quenching using CNL001 (1 nM CNL001, second column): 80.567%
- YFP fluorescence quenching using TC-5619/Bradanicline (3 nM brd): 72.24%
- YFP fluorescence quenching using Varenicline (3 nM var, first column): −5.939
- YFP fluorescence quenching using Varenicline (3 nM var, second column): −2.294
- YFP fluorescence quenching using CNL001 (10 nM CNL001, first column): 80.284%
- YFP fluorescence quenching using CNL001 (10 nM CNL001, second column): 81.232%
- YFP fluorescence quenching using TC-5619/Bradanicline (30 nM brd): 77.4%
- YFP fluorescence quenching using Facinicline (30 nM fac): 69.94
- YFP fluorescence quenching using Varenicline (30 nM var, first column): 68.663
- YFP fluorescence quenching using Varenicline (30 nM var, second column): 70.718
- YFP fluorescence quenching using CNL001 (50 nM CNL001, first column): 81.575%
- YFP fluorescence quenching using CNL001 (50 nM CNL001, second column): 82.544%
- YFP fluorescence quenching using ABT-126 (50 nM abt): −21.91%
- YFP fluorescence quenching using CNL001 (100 nM CNL001, first column): 81%
- YFP fluorescence quenching using CNL001 (100 nM CNL001, second column): 81.718%
- YFP fluorescence quenching using CNL002 (100 nM CNL002): 27.88%
- YFP fluorescence quenching using ABT-126 (100 nM abt): −0.5%
- YFP fluorescence quenching using AZD-0328 (100 nM azd0328): 80.39%
- YFP fluorescence quenching using ABT-126 (300 nM abt): 34.86%
- YFP fluorescence quenching using AZD-0328 (300 nM azd0328): 82.07%
- YFP fluorescence quenching using TC-5619/Bradanicline (300 nM brd): 78.02%
- YFP fluorescence quenching using Facinicline (300 nM fac): 80.07
- YFP fluorescence quenching using Varenicline (300 nM var, first column): 79.88
- YFP fluorescence quenching using Varenicline (300 nM var, second column): 79.742
- YFP fluorescence quenching using Varenicline (500 nM var, first column): 79.311
- YFP fluorescence quenching using Varenicline (500 nM var, second column): 80.029
- YFP fluorescence quenching using CNL001 (1 uM CNL001, first column): 82.334%
- YFP fluorescence quenching using CNL001 (1 uM CNL001, second column): 81.539%
- YFP fluorescence quenching using CNL002 (1 uM CNL002): 73.79%
- YFP fluorescence quenching using ABT-126 (1 uM abt): 56.66%
- YFP fluorescence quenching using TC-6987 (1 uM tc6987): 73.37
- YFP fluorescence quenching using Varenicline (1 uM var, first column): 80.952
- YFP fluorescence quenching using Varenicline (1 uM var, second column): 79.329
- YFP fluorescence quenching using TC-6987 (10 uM tc6987): 78.18
- YFP fluorescence quenching using CNL002 (30 uM CNL002): 75.89%
- YFP fluorescence quenching using AZD-0328 (30 uM azd0328): 82.23%
- YFP fluorescence quenching using Facinicline (30 uM fac): 78.32
- YFP fluorescence quenching using TC-6987 (500 uM tc6987): 75.42
- percent quench of YFP fluorescence, 30 nM TC-6683: −16.28%
- percent quench of YFP fluorescence, 300 nM TC-6683: −11.73%
- percent quench of YFP fluorescence, 3 uM TC-6683: −2.38%
- percent quench of YFP fluorescence, 30 uM TC-6683: −9.77%
- percent quench of YFP fluorescence, 100 uM TC-6683: 0.97%
- percent quench of YFP fluorescence, 10 uM ach: 7.43%
- percent quench of YFP fluorescence, 100 uM ach: 73.57%
- percent quench of YFP fluorescence, 1 mM ach: 71.8%
- percent quench of YFP fluorescence, 3 mM ach: 74.49%
